Test results reported in patent US20080057516A1 (published 2008).

What was measured:
[1] = biological target: T1, Syndecan-3 ectodomain purified from early postnatal rat brain (rat, UniProt P33671 45-387, carries natural heparan sulfate (HS) side chains; attachment residues not stated); experiment: SPR (IAsys), GFL immobilised, syndecan-3 ectodomain in solution; equilibrium response
T1 construct: extracellular domain; Native proteoglycan; also called S3; extracellular domain of syndecan-3
Experimental: (§1) The affinities of GFLs for heparin and heparin-like molecules (e.g. syndecan-3) were determined by plasmon surface resonance using the IAsys system (Affinity Sensors, Cambridge, UK). Planar aminosilane cuvettes (Affinity Sensors) were used for protein coupling to avoid problems with mass transport, which occur frequently with matrix surfaces. In the initial approach, heparin-BSA was immobilized to the cuvette surface using the manufacturer's instructions and different ligand concentrations were used to determine association (kₐ) and dissociation (kdis) rates using the IAsys Fastfit software. The dissociation constant Kd was determined from the binding dynamics as […], or from equilibrium response (R) using a simple Langmuir fit: R=(Rₘₐₓ*C)/(Kd+C), where C is the ligand concentration. […] The dissociation constants were determined from binding dynamics and equilibrium response. The same cuvettes were used to test binding of heparan sulfate proteoglycan syndecan-3, which was purified as an ectodomain from early postnatal rat brains by HB-GAM affinity chromatography (Raulo et al., 1994).
(§2) Binding was analyzed using IAsys cuvettes with immobilized heparin-BSA or GFLs. The dissociation constant Kd was determined from dynamics of association and dissociation (Kd=kdis/kₐ), or from equilibrium response R (R=(Rₘₐₓ*C)/(Kd+C), where C is ligand concentration).

[2] = biological target: T1, Syndecan-3 ectodomain purified from …; experiment: SPR (IAsys), GFL immobilised on aminosilane cuvette, syndecan-3 ectodomain in solution
Experimental: as §1, §2

[3] = biological target: T1, Syndecan-3 ectodomain purified from …; experiment: SPR (IAsys), GFL immobilised, syndecan-3 ectodomain in solution; Kd = kdis/ka
Experimental: as §1, §2

[4] = biological target: T1, Syndecan-3 ectodomain purified from …; experiment: SPR (IAsys), GFL immobilised, syndecan-3 ectodomain in solution; equilibrium response; equilibrium response only; syndecan-3 concentrations limiting, dynamics could not be fit
[5] = biological target: T1, Syndecan-3 ectodomain purified from …; experiment: SPR (IAsys optical biosensor): ARTN immobilized on the aminosilane cuvette, syndecan-3 ectodomain (S3) in solution at 0 to about 95 nM. Kd from the equilibrium response (insert of the ARTN panel)
Experimental: as §1

T1 sequence (P33671 45-387): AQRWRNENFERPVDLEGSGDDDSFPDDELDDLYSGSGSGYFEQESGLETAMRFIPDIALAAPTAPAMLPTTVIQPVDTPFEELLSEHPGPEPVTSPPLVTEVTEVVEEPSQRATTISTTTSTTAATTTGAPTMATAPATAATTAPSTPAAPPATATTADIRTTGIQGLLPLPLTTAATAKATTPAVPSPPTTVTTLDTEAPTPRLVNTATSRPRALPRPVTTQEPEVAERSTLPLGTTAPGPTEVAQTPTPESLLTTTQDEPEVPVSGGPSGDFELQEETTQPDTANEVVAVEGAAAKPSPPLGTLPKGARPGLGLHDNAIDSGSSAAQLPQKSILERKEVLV

Row | Kd [1] | koff [2] | kon [2] | Kd [3] | Kd [4] | Kd [5] | Binder
1 | 28.5 nM | 0.021 s⁻¹ | 750000 M⁻¹ s⁻¹ | 26.3 nM |  |  | Neurturin (NRTN) (ligand, UniProt Q99748 96-197, looked up) ARLGARPCGLRELEVRVSELGLGYASDETVLFRYCAGACEAAARVYDLGLRRLRQRRRLRRERVRAQPCCRPTAYEDEVSFLDAHSRYHTVHELSARECACV
2 | 12 nM | 0.015 s⁻¹ | 1.3e+06 M⁻¹ s⁻¹ | 11.5 nM |  |  | Glial cell line-derived neurotrophic factor (GDNF) (ligand, UniProt P39905 78-211, looked up, Immobilised on an aminosilane cuvette for SPR, or coated on plastic, glass or filters for the cell assays; also called wtGDNF; unlabeled (Cold) GDNF) SPDKQMAVLPRRERNRQAAAANPENSRGKGRRGQRGKNRGCVLTAIHLNVTDLGLGYETKEELIFRYCSGSCDAAETTYDKILKNLSRNRRLVSDKVGQACCRPIAFDDDLSFLDDNLVYHILRKHSAKRCGCI
3 |  |  |  |  | > 70 nM |  | Persephin (PSPN) (ligand, UniProt O60542 61-156, looked up) ALSGPCQLWSLTLSVAELGLGYASEEKVIFRYCAGSCPRGARTQHGLALARLQGQGRAHGGPCCRPTRYTDVAFLDDRHRWQRLPQLSAAACGCGG
4 | 21.2 nM | 0.034 s⁻¹ | 630000 M⁻¹ s⁻¹ | 53.9 nM |  | 21.1 nM | Artemin (ARTN) (ligand, UniProt Q5T4W7 108-220, looked up) AGGPGSRARAAGARGCRLRSQLVPVRALGLGHRSDELVRFRFCSGSCRRARSPHDLSLASLLGAGALRPPPGSRPVSQPCCRPTRYEAVSFMDVNSTWRTVDRLSATACGCLG
